This is an account of results in patent US20180371083A1.

In general, Kd refers to the free concentration of one partner at which half of the binding sites on the other are occupied at equilibrium, for simple one-to-one binding. Lower therefore signals higher affinity.

Test [1] addresses human TIGIT expressed on cells (CHO-K1 transfectants; Jurkat over-expressing human TIGIT) (human) (UniProt Q495A1). As to the kind of experiment: cell-based or functional assay.
The target of test [2] is human TIGIT-His protein (extracellular domain of human TIGIT fused to His tag) (human) (UniProt Q495A1). As to the kind of experiment: SPR, Biacore T200; antibody captured on anti-mouse IgG, human TIGIT-His as analyte; 1:1 Langmuir fit.
Chain of human TIGIT-His protein (extracellular domain of human TIGIT fused to His tag) (human) (Q495A1 25-141 limits assumed): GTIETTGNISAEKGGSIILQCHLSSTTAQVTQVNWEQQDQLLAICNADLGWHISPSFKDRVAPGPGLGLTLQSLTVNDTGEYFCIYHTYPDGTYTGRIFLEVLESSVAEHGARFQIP

Chain of human TIGIT expressed on cells (CHO-K1 transfectants; Jurkat over-expressing human TIGIT) (human) (Q495A1 25-244): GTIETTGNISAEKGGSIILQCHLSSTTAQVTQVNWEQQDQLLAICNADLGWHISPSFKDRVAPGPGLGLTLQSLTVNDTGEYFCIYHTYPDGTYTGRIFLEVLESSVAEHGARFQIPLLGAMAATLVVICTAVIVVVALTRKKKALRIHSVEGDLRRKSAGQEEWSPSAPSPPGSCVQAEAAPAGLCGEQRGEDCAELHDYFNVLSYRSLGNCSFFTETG

In test [1], “commercial anti-hTIGIT antibody, clone MBSA43 (eBioscience Cat#12-9500-42)” yielded an EC50, rescue of IL-2 in hTIGIT-Jurkat / THP-1 co-culture with CD155-Fc or CD112-Fc of 0.23 µg/mL. The Kd in test [2] was found to be 36.3 pM.
